B1: Porcine pancreas lipase: lipase from porcine pancreas (Sigma), crude or immobilized (protein, UniProt P00591 1-450, looked up)
Pancreatic triacylglycerol …: SEVCFPRLGCFSDDAPWAGIVQRPLKILPWSPKDVDTRFLLYTNQNQNNYQELVADPSTITNSNFRMDRKTRFIIHGFIDKGEEDWLSNICKNLFKVESVNCICVDWKGGSRTGYTQASQNIRIVGAEVAYFVEVLKSSLGYSPSNVHVIGHSLGSHAAGEAGRRTNGTIERITGLDPAEPCFQGTPELVRLDPSDAKFVDVIHTDAAPIIPNLGFGMSQTVGHLDFFPNGGKQMPGCQKNILSQIVDIDGIWEGTRDFVACNHLRSYKYYADSILNPDGFAGFPCDSYNVFTANKCFPCPSEGCPQMGHYADRFPGKTNGVSQVFYLNTGDASNFARWRYKVSVTLSGKKVTGHILVSLFGNEGNSRQYEIYKGTLQPDNTHSDEFDSDVEVGDLQKVKFIWYNNNVINPTLPRVGASKITVERNDGKVYDFCSQETVREEVLLTLNPC
modifications: crude or immobilized
B2: Mucor miehei: lipase of Mucor miehei origin (Sigma), crude or immobilized (protein, UniProt P19515 95-363, looked up)
Lipase: SIDGGIRAATSQEINELTYYTTLSANSYCRTVIPGATWDCIHCDATEDLKIIKTWSTLIYDTNAMVARGDSEKTIYIVFRGSSSIRNWIADLTFVPVSYPPVSGTKVHKGFLDSYGEVQNELVATVLDQFKQYPSYKVAVTGHSLGGATALLCALDLYQREEGLSSSNLFLYTQGQPRVGDPAFANYVVSTGIPYRRTVNERDIVPHLPPAAFGFLHAGEEYWITDNSPETVQVCTSDLETSDCSNSIVPFTSVLDHLSYFGINTGLCT
modifications: crude or immobilized
B3: Rhizomucor miehei: lipase of Rhizomucor miehei origin (Sigma), crude or immobilized (protein, UniProt P19515 95-363, looked up)
Lipase: B2 Lipase
modifications: crude or immobilized

What was measured:
Assay type in all cases: biochemical
[1] = acidolysis activity of lipases using MCT and caproic acid; conditions: for Conversion % (24 h): MCT (1 gr), caproic acid (0.23 gr), 500 mg enzyme preparation, 50° C., solvent-free; for acidolysis activity in words, Caproic acid and MCT: summary of Table 1
Experimental: (§7) The acidolysis activity of crude enzymes and enzymes adapted for synthetic reactions was assayed by adding an enzyme preparation (500 mg) into a 10 ml reaction solution containing MCT and a free fatty acid where the molar ratio between both substrates was 1:1. The reaction mixture was shaken for 16 hours at a temperature of 50° C. Samples (0.1 ml) were taken from the reaction mixture and mixed with 10 ml solvent comprised of acetone-dichloromethane at a ratio of 90:10. The samples were filtered through a Millipore filter (pore size 0.45 μm) and then injected to the HPLC.
(§8) The reaction progress was followed by analyzing the triglyceride composition in the reaction medium before and after the enzymatic reaction using an HPLC equipped with an ELSD (Evaporative light Scattering Detector). The HPLC was equipped with a LiChrosorb CH-18 Super (250×4 mm, 5 μm, MERCK). The HPLC running conditions were as follows: mobile phase A, Acetonitrile/Dichloromethane/Acetone (80/15/5); mobile phase B: Acetone/Dichloromethane/Acetone (20/60/20). The flow rate was 1 ml/min and the gradient was 0 to 100% B for 30 min.
(§9) The substrate conversion was calculated as follows: Conversion %=100×(Sum of area of the 4 peaks representing the MCT at time zero)−(Sum of area of the 4 peaks representing the MCT after 16 h reaction time)per Sum of area of the 4 peaks representing the MCT at time zero. The MCT conversion (%) was used as an indicative parameter for the efficiency of enzyme activity to obtain the desired product.

[2] = acidolysis activity of lipases using MCT and caprylic acid; conditions: for Conversion % (24 h): MCT (1 gr), caprylic acid (0.28 gr), 500 mg enzyme preparation, 50° C., solvent-free; for acidolysis activity in words, Caprylic acid and MCT: summary of Table 2
Experimental: (§1) The acidolysis activity of crude enzymes and enzymes adapted for synthetic reactions was assayed by adding an enzyme preparation (500 mg) into a 10 ml reaction solution containing MCT and a free fatty acid where the molar ratio between both substrates was 1:1. […] Samples (0.1 ml) were taken from the reaction mixture and mixed with 10 ml solvent comprised of acetone-dichloromethane at a ratio of 90:10. The samples were filtered through a Millipore filter (pore size 0.45 μm) and then injected to the HPLC.
(§2) The reaction progress was followed by analyzing the triglyceride composition in the reaction medium before and after the enzymatic reaction using an HPLC equipped with an ELSD (Evaporative light Scattering Detector). The HPLC was equipped with a LiChrosorb CH-18 Super (250×4 mm, 5 μm, MERCK). The HPLC running conditions were as follows: mobile phase A, Acetonitrile/Dichloromethane/Acetone (80/15/5); mobile phase B: […] (20/60/20). The flow rate was 1 ml/min and the gradient was 0 to 100% B for 30 min.
(§3) The substrate conversion was calculated as follows: Conversion %=100×(Sum of area of the 4 peaks representing the MCT at time zero)−([…])per Sum of area of the 4 peaks representing the MCT at time zero. The MCT conversion (%) was used as an indicative parameter for the efficiency of enzyme activity to obtain the desired product. Results
(§4) Tables 1-12 show the acidolysis activity of various lipases, which were screened for their ability to catalyze the reaction between MCT and free fatty acids in a solvent-free system according to the enzymatically catalyzed reaction presented in FIG. 1. All lipases were used in their crude form as supplied by the manufacturer (Sigma) or immobilized on an insoluble matrix. Immobilized lipases were activated before their use in the acidolysis reaction containing MCT and a long-chain fatty acid by pretreatment with a biphase system containing 50% triglyceride oil such as olive oil, soy oil and the like and 50% water. This pretreatment lead to the activation of the immobilized enzymes for synthetic applications.
(§5) A typical enzyme activation and immobilization procedure used in this example is as follows: 1 g of a crude lipase preparation was dissolved in a 1 L of phosphate buffer solution of an appropriate pH according to the recommendation of the enzyme's manufacturer. 10 g of support matrix (silica, celite, an ion-exchange resin such as DUOLITE® A56, DUOLITE® A7, DUOLITE® XAD761, or Amberlite™ XAD16) were added into the stirred enzyme solution. The slurry was shaken for 8 hours at a temperature of 10° C. Hundred ml of cold acetone was optionally added into the stirred slurry in order to enhance the enzyme immobilization on the matrix surface. The immobilized enzyme was filtered of from the mixture and then freeze-dried or used wet for the following step. One g of freeze-dried immobilized lipase (water content of less than 2 weight %) or wet immobilized lipase (water content of approx. 20%) was added into a biphase system comprised of 5 g olive oil and 2 g buffer solution of pH7 at room temperature. The mixture was stirred for 10 min. The immobilized lipases was filtered of from the mixture, washed with cold acetone, dried in a desiccator and then used for the acidolysis reaction between MCT and a fatty acyl donor.
(§6) Reaction conditions: MCT (1 gr), caproic acid (0.23 gr), and 500 mg enzyme preparation. The reaction mixture was shaken and thermostated at 50° C. for 16 h. […]

[3] = acidolysis activity of lipases using MCT and capric acid; conditions: MCT (1 gr), capric acid (0.34 gr), 500 mg enzyme preparation, 50° C., solvent-free
Experimental: as §1, §2, §3
as §4, with “applications. […]” for “applications.”

[4] = acidolysis activity of lipases using MCT and lauric acid; conditions: MCT (1 gr), lauric acid (0.4 gr), 500 mg enzyme preparation, 50° C., solvent-free
Experimental: as §7, §8, §9
Reaction conditions as described in Table 1, with one modification, namely lauric acid (0.4 gr) was used as the fatty acid.

[5] = acidolysis activity of lipases using MCT and palmitic acid; conditions: MCT (1 gr), palmitic acid (0.51 gr), 500 mg enzyme preparation, 50° C., solvent-free
Experimental: as §1, §2, §3
as §4, with “applications. […]” for “applications.”

[6] = acidolysis activity of lipases using MCT and stearic acid; conditions: MCT (1 gr), stearic acid (0.56 gr), 500 mg enzyme preparation, 50° C., solvent-free
Experimental: as §7, §8, §9
All lipases were used in their crude form as supplied by the manufacturer (Sigma) or immobilized on an insoluble matrix. Immobilized lipases were activated before their use in the acidolysis reaction containing MCT and a long-chain fatty acid by pretreatment with a biphase system containing 50% triglyceride oil such as olive oil, soy oil and the like and 50% water. […]

[7] = acidolysis activity of lipases using MCT and oleic acid; conditions: MCT (1 gr), oleic acid (0.56 gr), 500 mg enzyme preparation, 50° C., solvent-free
Experimental: as §7, §8, §9
(§10) All lipases were used in their crude form as supplied by the manufacturer (Sigma) or immobilized on an insoluble matrix. Immobilized lipases were activated before their use in the acidolysis reaction containing MCT and a long-chain fatty acid by pretreatment with a biphase system containing 50% triglyceride oil such as olive oil, soy oil and the like and 50% water. This pretreatment lead to the activation of the immobilized enzymes for synthetic applications. […]

[8] = acidolysis activity of lipases using MCT and linoleic acid; conditions: MCT (1 gr), linoleic acid (0.55 gr), 500 mg enzyme preparation, 50° C., solvent-free
Experimental: as §1, §2, §3
as §4, with “applications. […]” for “applications.”

[9] = acidolysis activity of lipases using MCT and alpha-linolenic acid; conditions: MCT (1 gr), alpha-linolenic acid (0.55 gr), 500 mg enzyme preparation, 50° C., solvent-free
Experimental: as §7, §8, §9, §10

[10] = acidolysis activity of lipases using MCT and arachidonic acid; conditions: for Conversion % (24 h): MCT (1 gr), arachidonic acid (0.6 gr), 500 mg enzyme preparation, 50° C., solvent-free
Experimental: as §1, §2, §3, §4
A typical enzyme activation and immobilization procedure used in this example is as follows: 1 g of a crude lipase preparation was dissolved in a 1 L of phosphate buffer solution of an appropriate pH according to the recommendation of the enzyme's manufacturer. 10 g of support matrix (silica, celite, an ion-exchange resin such as DUOLITE® A56, DUOLITE® A7, DUOLITE® XAD761, or Amberlite™ XAD16) were added into the stirred enzyme solution. The slurry was shaken for 8 hours at a temperature of 10° C. Hundred ml of cold acetone was optionally added into the stirred slurry in order to enhance the enzyme immobilization on the matrix surface. […]

[11] = acidolysis activity of lipases using MCT and EPA; conditions: for Conversion % (24 h): MCT (1 gr), EPA (0.6 gr), 500 mg enzyme preparation, 50° C., solvent-free; for efficiency of incorporation of EPA into MCT, in words: summary of Table 11
Experimental: as §1, §2, §3, §4, §5, §6

[12] = acidolysis activity of lipases using MCT and DHA; conditions: MCT (1 gr), DHA (0.65 gr), 500 mg enzyme preparation, 50° C., solvent-free
Experimental: as §1, §2, §3
as §4, with “applications. […]” for “applications.”

Molecule | Conversion % (24 h) [1] [%] | Conversion % (24 h) [2] [%] | Conversion % [3] [%] | Conversion % (24 h) [4] [%] | Conversion % [5] [%] | Conversion % (24 h) [6] [%] | Conversion % (24 h) [7] [%] | Conversion % [8] [%] | Conversion % (24 h) [9] [%] | Conversion % (24 h) [10] [%] | Conversion % (24 h) [11] [%] | Conversion % (24 h) [12] [%] | acidolysis activity in words, Caproic acid and MCT [1] | acidolysis activity in words, Caprylic acid and MCT [2] | efficiency of incorporation of EPA into MCT, in words [11] | efficiency of incorporation of ARA into MCT, in words ([10]; summary of Table 10)
B1 | 6 | 5 | 5 | 6 | 1 | 5 | 4 | 5 | 6 | 2 | 3 | 5 | – | – | – | –
B2 | 35 | 42 | 39 | 38 | 41 | 42 | 40 | 41 | 31 | 3 | 25 | 27 | preferred sources | reasonable acidolysis activity | the most efficient enzymes | –
B3 | 31 | 37 | 37 | 39 | 33 | 37 | 43 | 35 | 39 | 15 | 30 | 16 | preferred sources | reasonable acidolysis activity | the most efficient enzymes | among the most efficient enzymes
